{
  "source": "paper PMC4510890",
  "key": {"[1]": {"molecular_target": "recombinant rabbit ASI(+)RyR1 (rabbit) (UniProt P11716)"}, "[2]": {"molecular_target": "recombinant rabbit ASI(+)RyR1 (rabbit) (UniProt P11716)", "remark": "listed apart in the source"}},
  "data": [
    {"substance": "dihydropyridine receptor β1a subunit (from UniProt P19517 1-524) (natural protein)", "values": [
      {"measurement": "relative Po of ASI(+)RyR1 channels in lipid bilayers, 10 nM β1a (50 nM also tested, number not given), cis 10 μM Ca2+, no ATP", "setting": "[1]", "value": 4.4, "unit": "fold"},
      {"measurement": "relative Po of ASI(−)RyR1 channels in lipid bilayers, 10 nM β1a (50 nM also tested, number not given), cis 10 μM Ca2+, no ATP", "setting": "[1]", "value": 2.3, "unit": "fold"},
      {"measurement": "relative Po of WT RyR1 channels in lipid bilayers, 10 nM to 100 nM β1a (1.8-fold at 10 nM, 1.9-fold at 100 nM), cis 10 μM Ca2+ and 2 mM ATP", "setting": "[2]", "value": 1.9, "unit": "fold"}
    ]}
  ]
}
